Results as given in patent US5567602A, “Recombinant production of chymase” (Arris Pharmaceutical Corporation, priority 1992, dated 1996).
Like-named read-outs stand apart in the source and are kept apart here.

Assays:
[1] = target: T1, recombinant human chymase (Homo sapiens, UniProt P23946); experiment: Inhibitor profile of recombinant human chymase (residual activity, chromogenic substrate); format: biochemical; settings: none = 100
T1 construct: made in house; host or cells: Escherichia coli (XL1-Blue)
T1 sequence (P23946 22-247): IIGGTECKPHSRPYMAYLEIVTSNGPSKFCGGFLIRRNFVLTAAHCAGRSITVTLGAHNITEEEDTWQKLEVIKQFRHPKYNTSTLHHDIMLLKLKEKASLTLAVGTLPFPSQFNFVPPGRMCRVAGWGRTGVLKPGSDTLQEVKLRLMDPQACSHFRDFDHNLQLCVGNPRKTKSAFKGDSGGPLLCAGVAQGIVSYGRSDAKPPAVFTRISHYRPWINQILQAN
Method: (§1) Assays for chymase activity were carried out in cuvettes, which contained, in 1 ml, 80 μg of the chromogenic substrate succinyl-L-PheProPhe-p-nitroanilide in 30 mM Tris-HCl, pH 8.0, 1M NaCl. Samples were placed in a spectrophotometer and set to zero absorbance. The assay was initiated by mixing in approximately 10 μg of protein and absorbance at 405 nm was monitored as a function of time. Chymase activity was determined from the specific activity (110 absorbance units/mg/min at 37° C.; Caughey et al., 1988, Bioch. Biophys. Acta 952:142-149) and the slope of the absorbance vs. time plot.
(§2) MBP-chymase fusion protein, recovered in the insoluble fraction from cell extracts, was resuspended in lysis buffer containing β-mercaptoethanol and 8M urea. After sonication to completely resuspend the pellet, the sample was dialyzed against 10 mM sodium phosphate buffer, pH 7.2 overnight. Insoluble material was removed by centrifugation and the fusion protein was then purified by amylose affinity chromatography as above. The fusion protein was eluted from the resin with maltose and dialyzed against 20 mM Tris-HCl, pH 8.0, 100 mM NaCl. The protein was then exchanged into reducing buffer #1 (0.1M Tris-HCl, pH 8.7, 1 mM EDTA, 6M guanidine-HCl, 0.15M NaCl, 0.3 M reduced glutathione) and incubated at room temperature for 2 hours. The sample was diluted 100-fold into oxidizing buffer #2 (0.1 Tris-HCl, pH 8.0, 1 mM EDTA, 0.15M NaCl, 0.3 mM oxidized glutathione), stirred for 2-48 hr at room temperature, and concentrated 100-fold to 285 μg/ml by ultrafiltration using an Amicon stirred flow cell. Factor Xa cleavage reactions were carried out at room temperature overnight. Ten μl samples were periodically removed and assayed for chymase activity in the presence or absence of various proteinase inhibitors. Several control experiments were also performed as described below.

[2] = tested on: human heart chymase; settings: none = 100, cited from earlier work
[3] = tested on: Chymase; settings: general statement, no concentration; cited from earlier work
[4] = tested on: airway submucosal gland cells; settings: cited from earlier work
[5] = at 37° C.; Caughey et al., 1988; cited from earlier work
[6] = Assay for chymase proteolytic activity on chromogenic substrate; format: biochemical; settings: for proteolytic activity on chromogenic substrate: not refolded, chymase substrate succinyl-L-PheProPhe-p-nitroanilide; for activity released by Factor Xa: refolded fusion protein
Method: as §1, §2

CC(=O)N[C@@H](CC(C)C)C(=O)N[C@@H](CC(C)C)C(=O)N[C@H](C=O)CCCNC(=N)N [LEU, leupeptin]
remaining activity at 10 µM ([1]; 10 μM inhibitor, read-out: % Residual Activity, Recombinant Enzyme): 100% | % Residual Activity, Heart Chymase ([2]; 10 μM inhibitor): 106%

O=S(=O)(F)Cc1ccccc1 [PMSF, phenylmethylsulfonyl fluoride]
% Residual Activity, Recombinant Enzyme ([1]; 1 mM inhibitor): 0% | % Residual Activity, Heart Chymase ([2]; 1 mM inhibitor): 0%

Cc1ccc(S(=O)(=O)N[C@@H](Cc2ccccc2)C(=O)CCl)cc1 [TPCK, ptosyl-L-phenylalanine chloromethyl ketone]
remaining activity at 100 µM ([1]; 100 μM inhibitor, read-out: % Residual Activity, Recombinant Enzyme): 0% | % Residual Activity, Heart Chymase ([2]; 1 mM inhibitor): 30%

B1: SBTI: soybean trypsin inhibitor (protein)
chain: DFVLDNEGNPLENGGTYYILSDITAFGGIRAAPTGNERCPLTVVQSRNELDKGIGTIISSPYRIRFIAEGHPLSLKFDSFAVIMLCVGIPTEWSVVEDLPEGPAVKIGENKDAMDGWFRLERVSDDEFNNYKLVFCPQQAEDDKCGDIGISIDHDDGTRRLVVSKNKPLVVQFQKLDKESL
% Residual Activity, Recombinant Enzyme ([1]; 25 μM inhibitor): 0% | % Residual Activity, Heart Chymase ([2]; 1 μM inhibitor): 0% | % Residual Activity, Heart Chymase ([2]; 100 μM inhibitor): 0% | inhibition of chymase [3]: inhibited

B2: Chymase: serine protease with chymotrypsin-like substrate specificity of mast cells (protein)
chain: IIGGTECKPHSRPYMAYLEIVTSNGPSKFCGGFLIRRNFVLTAAHCAGRSITVTLGAHNITEEEDTWQKLEVIKQFRHPKYNTSTLHHDIMLLKLKEKASLTLAVGTLPFPSQFNFVPPGRMCRVAGWGRTGVLKPGSDTLQEVKLRLMDPQACSHFRDFDHNLQLCVGNPRKTKSAFKGDSGGPLLCAGVAQGIVSYGRSDAKPPAVFTRISHYRPWINQILQAN
secretagogue activity [4]: extremely potent secretagogue | specific activity [5]: 110 absorbance units/mg/min

B3: MBP-chymase: catalytic domain of human mast cell chymase fused to the maltose binding protein of Escherichia coli, wild type chymase amino acid sequence (protein)
chain: IEGRIIGGTECKPHSRPYMAYLEIVTSNGPSKFCGGFLIRRNFVLTAAHCAGRSITVTLGAHNITEEEDTWQKLEVIKQFRHPKYNTSTLHHDIMLLKLKEKASLTLAVGTLPFPSQFNFVPPGRMCRVAGWGRTGVLKPGSDTLQEVKLRLMDPQACSHFRDFDHNLQLCVGNPRKTKSAFKGDSGGPLLCAGVAQGIVSYGRSDAKPPAVFTRISHYRPWINQILQAN
enzymatic activity on the chymase substrate (control experiments) ([6]; Factor Xa alone, or fusion protein in the absence of Factor Xa): did not result in detectable enzymatic activity | proteolytic activity on chromogenic substrate [6]: no detectable proteolytic activity

B4: Free chymase: Free chymase, released by Factor Xa cleavage of the fusion protein (protein)
chain: IIGGTECKPHSRPYMAYLEIVTSNGPSKFCGGFLIRRNFVLTAAHCAGRSITVTLGAHNITEEEDTWQKLEVIKQFRHPKYNTSTLHHDIMLLKLKEKASLTLAVGTLPFPSQFNFVPPGRMCRVAGWGRTGVLKPGSDTLQEVKLRLMDPQACSHFRDFDHNLQLCVGNPRKTKSAFKGDSGGPLLCAGVAQGIVSYGRSDAKPPAVFTRISHYRPWINQILQAN
proteolytic activity on chromogenic substrate [6]: inactive as a protease

B5: recombinant human chymase: enzymatically active, recombinant human chymase released by Factor Xa cleavage of the refolded fusion protein (protein)
chain: IIGGTECKPHSRPYMAYLEIVTSNGPSKFCGGFLIRRNFVLTAAHCAGRSITVTLGAHNITEEEDTWQKLEVIKQFRHPKYNTSTLHHDIMLLKLKEKASLTLAVGTLPFPSQFNFVPPGRMCRVAGWGRTGVLKPGSDTLQEVKLRLMDPQACSHFRDFDHNLQLCVGNPRKTKSAFKGDSGGPLLCAGVAQGIVSYGRSDAKPPAVFTRISHYRPWINQILQAN
enzymatic activity of released recombinant human chymase ([6]; refolded fusion protein cleaved by Factor Xa, hydrolysis of the chymase substrate): enzymatically active | activity released by Factor Xa ([6]; at 2 hours): 2.7 µg/mL | activity released by Factor Xa ([6]; at 5 hours, remained at this level for up to 24 hours): 4.6 µg/mL
